According to patent US20180105596A1 (ELSALYS BIOTECH, published 2018):

T1: immunoglobulin-like domain Ig-2 of human Tyro3 (human, UniProt Q06418 139-220)
T1 construct: No fragment of Ig-2 alone was made
T1 sequence: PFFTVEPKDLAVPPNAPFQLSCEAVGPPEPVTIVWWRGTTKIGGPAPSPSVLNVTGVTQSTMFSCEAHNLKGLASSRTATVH

T2: hTyro 3-ECD
T2 construct: not the His-Strep tagged ECD m13; also called Recombinant Human Dtk-Fc Chimera (R&D Systems 859-DK-100); not shown: Human Fc, and any linker, of the commercial chimera (R&D Systems 859-DK-100)
T2 chain: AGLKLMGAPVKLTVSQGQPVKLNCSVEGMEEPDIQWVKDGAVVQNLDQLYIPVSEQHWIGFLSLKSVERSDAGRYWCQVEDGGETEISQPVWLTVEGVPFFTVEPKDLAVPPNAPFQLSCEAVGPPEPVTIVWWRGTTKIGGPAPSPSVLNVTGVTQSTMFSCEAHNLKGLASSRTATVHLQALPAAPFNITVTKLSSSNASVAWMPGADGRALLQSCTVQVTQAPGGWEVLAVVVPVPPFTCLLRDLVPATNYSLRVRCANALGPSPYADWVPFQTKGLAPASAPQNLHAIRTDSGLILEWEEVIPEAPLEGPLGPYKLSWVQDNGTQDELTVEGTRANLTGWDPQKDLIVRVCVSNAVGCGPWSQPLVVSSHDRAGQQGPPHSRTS

T3: extracellular domain of human Axl, Fc fusion (R&D Systems 154-AL-100) (human, UniProt P30530 26-451)
T3 construct: Bought protein; also called hAxl; hAXL; not shown: Fc of the bought ECD-Fc fusion
T3 sequence: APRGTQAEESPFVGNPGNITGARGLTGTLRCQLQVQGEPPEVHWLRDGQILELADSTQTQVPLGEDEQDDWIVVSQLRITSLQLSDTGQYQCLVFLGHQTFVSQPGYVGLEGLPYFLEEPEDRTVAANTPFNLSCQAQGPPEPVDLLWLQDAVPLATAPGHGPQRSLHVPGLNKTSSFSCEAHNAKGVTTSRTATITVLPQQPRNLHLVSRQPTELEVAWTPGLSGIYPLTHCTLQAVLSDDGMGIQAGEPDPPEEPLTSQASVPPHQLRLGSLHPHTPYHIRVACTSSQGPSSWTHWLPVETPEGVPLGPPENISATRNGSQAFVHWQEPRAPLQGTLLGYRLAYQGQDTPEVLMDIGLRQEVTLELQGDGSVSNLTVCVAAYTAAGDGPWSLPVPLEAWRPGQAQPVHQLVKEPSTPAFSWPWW

T4: extracellular domain of human Mer, Fc fusion (R&D Systems 891-MR-100) (human, UniProt Q12866 21-505)
T4 construct: Bought protein; also called hMer; hMER; not shown: Fc of the bought ECD-Fc fusion
T4 sequence: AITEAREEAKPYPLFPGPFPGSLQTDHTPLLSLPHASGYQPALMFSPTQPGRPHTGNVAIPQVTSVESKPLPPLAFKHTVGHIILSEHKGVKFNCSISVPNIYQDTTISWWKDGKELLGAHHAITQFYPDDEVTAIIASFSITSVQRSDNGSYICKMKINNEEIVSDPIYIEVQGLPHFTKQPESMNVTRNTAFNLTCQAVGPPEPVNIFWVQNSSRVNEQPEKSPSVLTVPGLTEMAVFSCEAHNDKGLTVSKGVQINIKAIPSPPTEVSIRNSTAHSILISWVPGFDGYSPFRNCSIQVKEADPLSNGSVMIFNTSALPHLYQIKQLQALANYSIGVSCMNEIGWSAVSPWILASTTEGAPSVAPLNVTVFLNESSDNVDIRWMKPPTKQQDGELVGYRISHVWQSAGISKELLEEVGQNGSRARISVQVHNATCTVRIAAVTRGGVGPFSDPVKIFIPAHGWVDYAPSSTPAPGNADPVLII

T5: recombinant His-Strep tagged human Tyro3 extracellular domain (human, UniProt Q06418 41-429)
T5 construct: also called hTyro3 ECD; full Tyro3 ECD
T5 sequence: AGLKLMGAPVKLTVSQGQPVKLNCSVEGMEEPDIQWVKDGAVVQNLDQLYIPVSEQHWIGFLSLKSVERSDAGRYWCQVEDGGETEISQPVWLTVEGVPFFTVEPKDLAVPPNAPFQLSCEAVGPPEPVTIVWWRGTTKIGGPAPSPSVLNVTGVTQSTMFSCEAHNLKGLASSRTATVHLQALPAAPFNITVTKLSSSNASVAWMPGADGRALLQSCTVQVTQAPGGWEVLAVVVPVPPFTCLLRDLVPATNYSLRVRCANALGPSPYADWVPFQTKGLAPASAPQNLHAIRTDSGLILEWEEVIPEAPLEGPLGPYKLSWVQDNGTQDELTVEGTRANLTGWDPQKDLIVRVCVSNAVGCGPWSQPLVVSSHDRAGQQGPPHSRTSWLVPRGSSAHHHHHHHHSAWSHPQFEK


Experiments:
[1] = target: T1, immunoglobulin-like domain Ig-2 of …; assay: double sandwich ELISA on captured fragments of hTyro3 ECD
hTyro 3-ECD = target: T2, hTyro 3-ECD; assay: ELISA, ECD coated 1 µg/well, scFv 1 µg/mL, anti-tag-HRP
Description: (§1) Extracellular domains of hTyro 3 (859-DK-100), hAxl (154-AL-100) or hMer (891-MR-100) from R&D Systems were coated onto 96-wells microtiter plates (1 μg/well) in PBS and incubated overnight at 4° C. Plates were washed three times with PBS and blocked in PBS/3% BSA for 1 hour at RT. Plates were washed as above and scFvs were added at 1 μg/mL (diluted in PBS) and incubated for 1 hour at RT. Plates were washed three times with PBST (PBS/0.01% Tween-20) and secondary antibody anti-FLAG-HRP was added (Abcam, ab49763, 1/5000 dilution in blocking buffer) for 1 hour at RT. Plates were washed as above with PBST and signal was developed with Ultra-TMB reagent (Thermo Scientific, 34028).

[2] = target: T3, extracellular domain of human Axl, Fc …; assay: as above
Description: as §1

[3] = target: T4, extracellular domain of human Mer, Fc …; assay: as above
Description: as §1

[4] = target: T5, recombinant His-Strep tagged human …; assay: sandwich ELISA, Strep-tagged fragment captured on StrepMAB plate, scFv 10 µg/mL (Table 17), anti-FLAG-HRP

binding result [1] | binding result (hTyro 3-ECD) | binding result [2] | binding result [3] | binding result [4] | Binder
no binding (tested: 10 µg/mL) |  | no binding (tested: 1 µg/mL) | no binding (tested: 1 µg/mL) |  | anti-Tyro3 scFv 2717 (scFv, V domains shown, Tested as a single-chain Fv made in E. coli) VH: EVQLVQSGADVKKPGASLTISCQASGYTFTDYWISWVRQKPGKGLEWMGEIFLPPSTTVYGPSFQGHVTISADRSTATAYLQWRSLEASDTAMYYCVRQTRLTSGGTIPEYYQHWGPGTLVTVSS VL: SYELTQPPSVSVSPGQTARITCSGDALPKKYAYWYQQKSGQAPVLVIYEDNKRGSGIPERFSGSSSGTMATLTISGAQVEDEADYYCYSKSPEGNYMVFGGGTKLTVL
no binding (tested: 10 µg/mL) | binds | no binding (tested: 1 µg/mL) | no binding (tested: 1 µg/mL) | binds | anti-Tyro3 scFv 2709 (scFv, V domains shown, Tested as a single-chain Fv made in E. coli) VH: EVQLVQSGADVKKPGASLTISCQASGYTFTDYWISWVRQKPGKGLEWMGAISRNGSTTYYGPSFQGHVTISADRSTATAYLQWRSLEASDTAMYYCVRSGGLTSGGTIPEYYQHWGPGTLVPVSS VL: SYELTQPPSVSVSPGQTARITCSGDALPKKYAYWYQQKSGQAPVLVIYEDKKRVSGIPERFSGSSSGTMATLTISGAQVEDEADYYCYSLAVDGNYGVFGGGTKLTVL
no binding (tested: 10 µg/mL) | binds | no binding (tested: 1 µg/mL) | no binding (tested: 1 µg/mL) |  | anti-Tyro3 scFv 2410 (scFv, V domains shown, Tested as a single-chain Fv made in E. coli) VH: EVQLVQSGADVKKPGASLTISCQASGYTFTDYWISWVRQKPGKGLEWMGQIVPRASRTNYGPSFQGHVTISADRSTATAYLQWRSLEASDTAMYYCVRPYFQTSGGTIPEYYQHWGPGTLVTVSS VL: SYELTQPPSVSVSPGQTARITCSGDALPKKYAYWYQQKSGQAPVLVIYEDEKRASGIPERFSGSSSGTMATLTISGAQVEDEADYYCYSQERNGNYAVFGGGTKLTVL

Continued, binder first:

Binder | binding result [1] | binding result (hTyro 3-ECD) | binding result [2] | binding result [3] | binding result [4]
anti-Tyro3 scFv 2414 (scFv, V domains shown, Tested as a single-chain Fv made in E. coli) VH: EVQLVQSGADVKKPGASLTISCQASGYTFTDYWISWVRQKPGKGLEWMGQINRHASNTMYGPSFQGHVTISADRSTATAYLQWRSLEASDTAMYYCVRSGGATSGGTIPEYYQHWGPGTLVTVSS VL: SYELTQPPSVSVSPGQTARITCSGDALPKKYAYWYQQKSGQAPVLVIYEDWKRASGIPERFSGSSSGTMATLTISGAQVEDEADYYCYSQERKGNYFVFGGGTKLTVL | no binding (tested: 10 µg/mL) | binds | no binding (tested: 1 µg/mL) | no binding (tested: 1 µg/mL) | 
anti-Tyro3 scFv 2412 (scFv, V domains shown, Tested as a single-chain Fv made in E. coli) VH: EVQLVQSGADVKKPGASLTISCQASGYTFTDYWISWVRQKPGKGLEWMGRIRPLLSHTMYGPSFQGHVTISADRSTATAYLQWRSLEASDTAMYYCVRSWLATSGGTIPEYYQHWGPGTLVTVSS VL: SYELTQPPSVSVSPGQTARITCSGDALPKKYAYWYQQKSGQAPVLVIYEDAKRVSGIPERFSGSSSGTMATLTISGAQVEDEADYYCYSASANGNYRVFGGGTKLTVL |  | binds | no binding (tested: 1 µg/mL) | no binding (tested: 1 µg/mL) | 
anti-Tyro3 scFv 2713 (scFv, V domains shown, Tested as a single-chain Fv made in E. coli) VH: EVQLVQSGADVKKPGASLTISCQASGYTFTDYWISWVRQKPGKGLEWMGRISRHGSQTYYGPSFQGHVTISADRSTATAYLQWRSLEASDTAMYYCVRAGGQTSGGTIPEYYQHWGPGTLVTVSS VL: SYELTQPPSVSVSPGQTARITCSGDALPKKYAYWYQQKSGQAPVLVIYEDHKRASGIPERFSGSSSGTMATLTISGAQVEDEADYYCYSISPAGNYGVFGGGTKLTVL |  | binds | no binding (tested: 1 µg/mL) | no binding (tested: 1 µg/mL) | 
anti-Tyro3 scFv 2711 (scFv, V domains shown, Tested as a single-chain Fv made in E. coli) VH: EVQLVQSGADVKKPGASLTISCQASGYTFTDYWISWVRQKPGKGLEWMGQIRGQHSSTLYGPSFQGHVTISADRSTATAYLQWRSLEASDTAMYYCVRHGASTSGGTIPEYYQHWGPGTLVTVSS VL: SYELTQPPSVSVSPGQTARITCSGDALPKKYAYWYQQKSGQAPVLVIYEDAKRSSGIPERFSGSSSGTMATLTISGAQVEDEADYYCYSLSDSGNYFVFGGGTKLTVL |  | binds | no binding (tested: 1 µg/mL) | no binding (tested: 1 µg/mL) | 
anti-Tyro3 scFv 2415 (scFv, V domains shown, Tested as a single-chain Fv made in E. coli) VH: EVQLVQSGADVKKPGASLTISCQASGYTFTDYWISWVRQKPGKGLEWMGQIRGPASATHYGPSFQGHVTISADRSTATAYLQWRSLEASDTAMYYCVRHQQQTSGGTIPEYYQHWGPGTLVTVSS VL: SYELTQPPSVSVSPGQTARITCSGDALPKKYAYWYQQKSGQAPVLVIYEDKKRISGIPERFSGSSSGTMATLTISGAQVEDEADYYCYSTSTGGNYMVFGGGTKLTVL |  | binds | no binding (tested: 1 µg/mL) | no binding (tested: 1 µg/mL) | 
